In the nanobody polyreactivity screen of Harvey et al. (2022):

test: yeast display, Sf9 membrane polyspecificity reagent, FACS + sequencing; frameworks hold sequencing errors
Summary of the method: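 Galactose induction of a Saccharomyces cerevisiae BJ5465 synthetic nanobody display library ran 36–48 hours. The cells were then stained for 1 hour at 4 °C with 10% biotinylated, detergent-solubilized Sf9 membrane reagent, pulled down on streptavidin microbeads and FACS-sorted into low and high (top ~1%) gates on expression and reagent-binding fluorescence. Labels for polyreactivity follow the gate of origin.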

Sequence | polyreactivity (PSR sort gate)
QVQLVESGGGLVQAGGSLRLSCAASGFTSWQYAMGWYRQAPGKERELVAAISVSGASTNYADSVRGRFTISRDNAKNTVYLQMNSLKPEETAVYYCAAAYVRYPTTRYYYWGQGTQVTVSS | high polyreactivity
QVQLVESGGGLVQAGGSLRLSCAASGSTFPWYAMGWARQAPGKETELVAAITTSGGTTYYADSVKGRFTISRDNAKNTVYLQMNSLKPEDTAVYYCNKQFGYPWEYYSYSYDYWGQGTQVTVSS | low polyreactivity
QVQLVESGGGLVQSGGSLRLSCAASGFIFRWYAMGWYRQAPGKERELVASIDWSGTRTNYADSVKGRFTISRDNAKNTVYLQMNSLKPEDTAVYYCNAVPTSLGETDYDYWGQGTQVTVSS | low polyreactivity
QVQLVESGGGLVQAGGSLRLSCAASGRISQYNAMGWYRQAPGKERELVATITRGGSTYYADSVKGRFTISRDNAKNTVYLQMNSLKPEDTAVYYCATDRYWWSGFDYWGQGTQVTVSS | high polyreactivity
QVQLVESGGGLVQAGGSLRLSCAASGSIFQRNTIGWYIQAPGKERELVAAISRSGGSTYYADSVKGLFTISRDNAKITVYLQMKSLKPEDTEVYYCAVSGGTSRRYYYWGQGTKVTVSS | high polyreactivity
QVQHVESGRGLVQAGGSLRLICAASGRIFDLNDMGRSRQAPGKERELVAAITSAGSTYYADSVKGRFTISRDNAKNTVYLQMNSLKPEDTAVYYCNKVARGVVRPGRVGSDYWAQGTQVTVSS | high polyreactivity
QVQLVESGGGLVQAGGSLRLSCAASGSTLYQYTMGWYRQAPGKERELVAGISRRGGSTYYADSVKGRFTISRDNAKNTVYLQMNSLKPEDTAVYYCAKRPPYIAWYGYNGDYWGQGTQVTVSS | high polyreactivity
QVQLVESGGGLVQAGGSLRLSCAASGFTLKYNTMGWYRQAPGKERELVAAITSSGVSTYYSDSVKGRFTISRDNAKNTVYLQMNSLKPEDTAVYYCNARERYSYWGQGTQVTVSS | high polyreactivity
QVQLVESGGGLVQAGGSLRLSCAASGFIFIFYAMGWYRQAPGKERELVAGISWSSSSTYYADSVKGRFTISRDNAKNTVYLQMNSLKPEDTAVYYCAKDGRSVSGEYDYWGQGTQVTVSS | low polyreactivity
QVQLVESGGGLVQAGGSLRLSCAASGRIFLYNAMGWYRQAPGKERELVAAISYNSGRTYYADSVKGRFTISRDNAKNTVYLQMNSLKPEDTAVYYCAAVSYPAVYGFDYWGQVTQVTVSS | high polyreactivity
QVQLVESGGGLVQAGGSLRLSCAASGRTFGVNAMGGYRQAPGKERELVAAISKRGGSTYYADSVKGRFTISRDNAKNTVYLQMNSLKPEDTAVYYCAKDQPHRGPMDYWGQGTQVTVSS | high polyreactivity
QVQLVESGGGLVQAGGSLRLSCAASGITSDFNAMGWYRQAPGKERELVAITWNGGSTYYADSVKGRFTISRDNAKNTVYLQMNSLKPEDSAVYYCAARYRRYNRIYDYWGQGTQVTVSS | high polyreactivity
QVQLVESGGGLVQAGGSLRLSCAASGSTFDIYALGWDRQAPGKEREMVAVISGGDGSTYYADSVKGRFTISRDNEKNTVYLQMNSLKPEETAVYYFAADRGTVSYLYSPRAVDYWGQGTQVTVSS | low polyreactivity
QVQLVESGGGLVQAGGSLRLSCAASGRTIWRYAMGWYRKAPGKERELVAAISWSGTSTYYADSVKGRFTISRDNAKNTVYLQMNSLKPEDTAVYYCAVAYPFYGKTLFSPQADYNYWGQGTQVTVSS | high polyreactivity
QVQLVESGGGLVQAGGSLRLSCAASGFIFALYTMGWYRQAPGKERELVARIRGGGRTNYADSVKGRFTISRDNAKNTVYLQMNSLKPEDTAVYYCNARKTVGMDYWGQGTQVTVSS | low polyreactivity
QVQLVESGGGLVQAGGSLRLSCAASGSTFLDYTMGWYRHAPGKERELVAVIYYRAGSTYYADSVKGRFTISRDNAKNTVYLQMNSLKPEDTAVYYCNADYYNFWRRRRYLWYESWGQGTQVTVSS | low polyreactivity
QVQLVESGGGLVQAGGSLRLSCAASGFTFIDYAMGWYRQAPGKERALVAAITSRGGSTYYADSVKGRFTISRDNAKNTVYLQMNSLKPEDTAVYYCNAGSSFWYAYEYWGQGTQVTVSS | high polyreactivity
QVQVVESGGGLVQAGGSLRLSCAPSGRIFTIYVMGWYRQAPGKERELVATITYSSGSTTYADSVKGRFTISRDNAKNTVYLQMNSLKPEDTAVYYCAKKYYTGYGYWGQGTQVTVSS | low polyreactivity
QVQLVESGGGLVQAGGSLRLSCAASGRTFSHYAMGWYRQAPGKERELVAAINTRTGTTYYADSVKGRFTISRDNAKNTVYLQMNSLKPEDTAVYYCNAVPYYSYQGWILVGDYDYWGQGTQVTVSS | low polyreactivity
QVQLVESGGGLVQAGGSLRLSCGASGRTFKLYAMGWYRQAPAKERELVATIRRSGTRTYADSVKGRFTISRDNAKNTVYLQINSLKQEDTAVYYCAATTYAYVYHRYDYWGQGTQVTVSS | high polyreactivity
QVQLVESGGGFVQAGGSLRLSCAASGSIFSVNTMGWYRQAPGKERELVATIRTGDSTNYADSVTGRFTISRDNAKNTVYLQMNSLKPEDTAVDYCAAEWSSLNFDYWGQGTQVTVSS | low polyreactivity

Sequence | polyreactivity (PSR sort gate)
QVQLVESGGGLVQAGGSLRLSCAASGRTFRWYAMGWSRPAPGKERELVASISRGGSKSYADSVKGRFTISRDNAKNTVYLQMNSLKPEDTAVYYCNAKYRLEMDLGQGTQVTVSS | high polyreactivity
QVQLQESCGGLVQAGGSLRLSCAASGSIFDGFNMGWYRQAPGKEREFVAAISYGASTYYADSVKGRFTVSRDNAKNSVYLQMNSLKPEDTAVYYCAVYDELYHVLVYWGRGTQVTVSS | low polyreactivity
QVQLVESGGGLVQAGGSLRLSCAASRFIFSWYAMGWYRQAPGTERELVATISSSGGRTHYADSVKGRFTISRDNAKNTVDLHMKSLKPEVTEVYYCAAHPFYYFTTVYYWGQGTQVTVSS | high polyreactivity
QVQLVDSGGGLGQAGGSLRLSCAASGIIISGYAMGWYRQAPGKERELVASIRSGSNTYYADSVKGRFTISRDNAKNTVYLQKNSLNPEDTAVYYCAARVVPATFRFIRYPNTYYYWGQGSQVTVSS | low polyreactivity
QVQLVESGGGLVQAGGSLRLSCAASGSIFTTYAMGWYRQAPGKERELVAAISRAGDTTYADSVKGRFTISRDNAKNTVYLQRNSLKPEDTAVYYWGQGTQVTVSS | low polyreactivity
QVQLVESGGGLVQAGGSLRLSCAASGSTFTGYAMGWYRQAPGKEREFVANITKRGGRTYYADSVKGRFTISRDNAKNTVYLQMNSLKPEDTAGYYCARDQGKLVVPYEYWGQATQVTVSS | high polyreactivity
QVQIVESGGGLLQAGGSLRLSCAASGRIFPANAMGWYREAPGKERELGAAIDYDGGSTYYADSVKGRFTISRDNAKNTVYLQRNSLKPVDNGVFYCDKSLTFYSWRDYGYWGQGTQVTVSS | high polyreactivity
QVQLVESGGGLVQAGGSLRLSCAASGRTFRLNAMGWYRQAPGKERELVAGIRVRAGTTYYADSVKGRFTLSRDNAKNTVYLQMNSLKPEDTAVYYCAAESYSRSRKYDYWGQGTQVTVSS | high polyreactivity
QVQLVESGGGLVQAGVSLRLSCHASGSIFYYNTMGWYRQSPGKERELVATISSDGGTNYADSVKGRFTISRDNAKYTVYLQMNSLKPEDTAVYYCAKDGSNRLALPAWDYNYWGQGTQVTVSS | low polyreactivity
QVQLVESGGGLVQAGGSLRLSCAASGSIFIGNAMGWYRQAPGKERELVAAITWSGGSTTYADSVKGRFTISRDNAKNTVYLQMNSLKPEDTAVYYCNASIYQRYDYWGQGTQVTVSS | low polyreactivity
QVQLVESGGGLVQAGGSLRLSCAASGGIFGYYAMGWYRQAPGKERELVAAISISGGRTYYADSVKGRFTISRDNAKNTVYLQMNSLKPEDTAVYYCKAARKVYVRGRGSEMDYWGQGTQVTVSS | low polyreactivity
QFQLEESGGGLVQAGGSLRLSCAASGRIFPTYTRGWYSQAPGKERVLVAGISYSGTSTSYADSVKGRFTMSRDNAKNSVYLELNSLKPEDTAVYYCAAKYYGRSFYYGYDYWGQGTQVTVSS | low polyreactivity
QVQLVESGGGLVPAGGSLRLSCAASGFIFGGYAMGWYRQAPGKERELVADITTSGDSTYYADSVKGRFTISRDNAKNTVYLQMNSLKPEDTAVYYCNAKRSFRWTYGYWGQGTQVTVSS | high polyreactivity
QVQLVESGGGLVQAGGSLSLSSAASGFTSTLNDMGWYRQAPGKERELVAAISNGGSTYYADSVKGRFTISRDNAKNTVYLQMNSLKPEDTAVYYCAVTATAPQEGDYWGQGTQVTVSS | low polyreactivity
QVQLVESGGGLVQAGGSLRLICAASGFILNSYAMGWYRQAPGKERELVAAITRSGGNTFYADSVKGRFKISRDNAKNTVYLQLNSLKPDDTAVYYCNAYFTYWSQLYYWGQGTQVTVSS | high polyreactivity
QVQLVESGGGLVQAGGSLRLSCAASGSILPYYAMGWYRQAPGKERELVAAISVSGGGTYYADSVKGRFTISRDNAKNTVYLQMNSLKPEDTAVYYCARNVNAQKVLGGFDSWGQGTQVTVSS | low polyreactivity
QVQLVESGGGLVQAGGSLRLSCAASGFTFTWYAMGWYRQAPGKERELVATISRSGGRTYYADSVKGRFTISRDNAKNTVYLQLNSLKPEDTAVYYCAADTRNYPRYDYWGQGTQVTVSS | high polyreactivity
QVQLVDSGGGLVQAGGSLRLSCAASGIIFRAYAMGWSRAAPGKERELVAAISRRGSTTYYADSVKGRFTISRDNAKNTVYLQMNSLKPEDTAVYFCAADYAGPTGFDYWGQGTQVTVSS | high polyreactivity
QVQLVESGGGLVQAGGSLRLSCAASGSIFRYYDMGWYRQAPGKERELVAAISDSTGTTYYADSVKGRFSISRDNAKNTVYLQMNSLKPEDTSVDYCTAGYDPRYDYWGQGTQVTVSS | high polyreactivity
QVQLVESGGGLVQAGGSLRLSCAASGSIFHRYAMGWYRQAPGKERELVAAINRGGSSYADSVKGRFTISLDNAKNTVYLQMNRLNPEDTAVYYCATRNIGRSTGPFYWGYYYWGQGTQVTVSS | high polyreactivity
